Measured values taken from PMC9984531, “Cryo-EM structure of human heptameric pannexin 2 channel” (Nature Communications, 2023).

Biological target: the molecule itself
Assay: cryo-EM structure; single-particle cryo-EM of purified Panx2-NT (Superose 6 peak at 16.0 ml), 50 mM Tris pH 7.5, 150 mM NaCl, 0.02% GDN, ~10 mg/ml; C1 map without imposed symmetry, final refinement with C7 symmetry at ~3.4 Å

B1: human pannexin 2 N-terminal domain (Panx2-NT, amino acids 1-410) (domain or fragment, UniProt Q96RD6-3 1-410, looked up)
chain: MHHLLEQSADMATALLAGEKLRELILPGAQDDKAGALAALLLQLKLELPFDRVVTIGTVLVPILLVTLVFTKNFAEEPIYCYTPHNFTRDQALYARGYCWTELRDALPGVDASLWPSLFEHKFLPYALLAFAAIMYVPALGWEFLASTRLTSELNFLLQEIDNCYHRAAEGRAPKIEKQIQSKGPGITEREKREIIENAEKEKSPEQNLFEKYLERRGRSNFLAKLYLARHVLILLLSAVPISYLCTYYATQKQNEFTCALGASPDGAAGAGPAVRVSCKLPSVQLQRIIAGVDIVLLCVMNLIILVNLIHLFIFRKSNFIFDKLHKVGIKTRRQWRRSQFCDINILAMFCNENRDHIKSLNRLDFITNESDLMYDNVVRQLLAALAQSNHDATPTVRDSGVQTVDPSAN
modifications: N-glycosylated on N86 (extra density observed near N86)
notes: Pannexin 2 (PANX2), H. sapiens, NCBI NP_443071.2, 677 residues in full; construct Panx2-NT holds amino acids 1-410, made to mimic the caspase-cleaved truncation; the model holds residues 41-184, 188-266, 273-373 and 377-388; also called C-terminal truncated Panx2; human N-terminal Panx2; source: HEK293F, transient transfection (PEI), purified (DDM solubilisation, anti-FLAG M2 agarose, Superose 6 …)
  stoichiometry N: 7
